Laboratory results published in US20250019439A1 (Adimab, published 2025).

Key:
[1] = target: T1, ADI-26924; test: SPR Carterra avidity, CHO anti-ID
T1 construct: anti-CD3 antibody made in CHO cells, captured by anti-human Fc
Procedure: (§1) Kinetic analysis was conducted at 25° C. in an HBSTE running buffer system (Carterra Cat #3630) using a Carterra LSA (Carterra USA, Salt Lake City, UT). The sample compartment was maintained at 20° C. for the duration of each experiment.
(§2) For antibody capture experiments, a goat anti-human Fc antibody (Jackson ImmunoResearch) was covalently coupled to an HC30M sensor chip surface via standard amine coupling (1:1 EDC:NHS) and then blocked with ethanolamine (1.0 M, pH 8.5). Covalent coupling steps were performed in 25 mM MES buffer (Carterra, Cat #3625) plus 0.05% Tween20. The anti-CD3 antibodies (100 nM in running buffer) were flowed over discrete regions of interest on the chip surface for 5 minutes. […] Dissociation of the anti-idiotype antibodies was monitored for 300s. Several blank buffer samples were injected over the entire chip surface at the start of each non-regenerative kinetic cycle. The preceding blank buffer injection was used for blank surface subtraction. At the end of each non-regenerative kinetic cycle, all surfaces were regenerated via two 30s injections of 10 mM glycine, pH 1.7.
(§3) In Tables 10A-10C, anti-CD3 antibodies are listed by ADI number or CTL number in the first column. […] CTL-62223 is mosunetuzumab, CTL-62227 is odronextamab, CTL-62228 is glofitamab, and CTL-62240 is ONO-4685. […] “W.B.” means weak binding under the conditions of this assay and thus a KD was unable to be assigned. “N.B.” means no binding under the conditions of this assay.

[2] = target: T2, ADI-26943; test: SPR Carterra avidity, CHO anti-ID
T2 construct: anti-CD3 antibody made in CHO cells, captured by anti-human Fc
Procedure: as §1, §2, §3

[3] = target: T3, ADI-76357; test: SPR Carterra avidity, CHO anti-ID
T3 construct: anti-CD3 antibody made in CHO cells, captured by anti-human Fc
Procedure: as §1, §2, §3

[4] = target: T4, ADI-22523 IgG; test: BLI; tip ADI-34145 IgG, solution anti-CD3 IgG
T4 construct: anti-CD3 IgG
Procedure: (§4) ForteBio affinity measurements were performed generally as previously described (Estep et al., MAbs. 2013 5(2):270-8). Briefly, ForteBio affinity measurements were performed by loading antibody IgG or Fabs on-line onto AHC sensors. Sensors were equilibrated off-line in assay buffer for 30 minutes and then monitored on-line for 60 seconds for baseline establishment. For avid binding measurement, sensors with loaded antibodies were exposed to IgG or Fab solutions for 3 minutes, afterwards they were transferred to assay buffer for 3 minutes for off-rate measurement. Kinetics data were fit using a 1:1 binding model in the data analysis software provided by ForteBio to obtain equilibrium dissociation constant (KD=koff/kₒₙ) values. In each column, tip-immobilized antibodies are listed first and solution antibodies second.
(§5) In each column, tip-immobilized antibodies are listed first and solution antibodies second.

[5] = target: T5, ADI-26954 IgG; test: BLI; tip ADI-34145 IgG, solution anti-CD3 IgG
T5 construct: anti-CD3 IgG
Procedure: as §4, §5

[6] = target: T6, ADI-26906 IgG; test: BLI; tip ADI-34145 IgG, solution anti-CD3 IgG
T6 construct: anti-CD3 IgG
Procedure: as §4, §5

[7] = target: T7, ADI-26913 IgG; test: BLI; tip ADI-34145 IgG, solution anti-CD3 IgG
T7 construct: anti-CD3 IgG
Procedure: as §4, §5

[8] = target: T8, ADI-26920 IgG; test: BLI; tip ADI-34145 IgG, solution anti-CD3 IgG
T8 construct: anti-CD3 IgG
Procedure: as §4, §5

[9] = target: T9, ADI-26916 IgG; test: BLI; tip ADI-34145 IgG, solution anti-CD3 IgG
T9 construct: anti-CD3 IgG
Procedure: as §4, §5

[10] = target: T10, ADI-70330; test: SPR Carterra avidity, CHO anti-ID
T10 construct: anti-CD3 antibody made in CHO cells, captured by anti-human Fc
Procedure: as §1, §2, §3

[11] = target: T11, ADI-67450; test: SPR Carterra avidity, CHO anti-ID
T11 construct: anti-CD3 antibody made in CHO cells, captured by anti-human Fc
Procedure: as §1, §2, §3

[12] = target: T7, ADI-26913 IgG; test: SPR Carterra avidity, CHO anti-ID
Procedure: as §1, §2, §3

[13] = target: T12, ADI-76360; test: SPR Carterra avidity, CHO anti-ID
T12 construct: anti-CD3 antibody made in CHO cells, captured by anti-human Fc
Procedure: as §1, §2, §3

[14] = target: T4, ADI-22523 IgG; test: BLI; tip anti-CD3 IgG, solution ADI-34134 IgG
Procedure: as §4
(§6) CTL-19613 is an IgG1 antibody prepared with anti-CD3 variable domains corresponding with those of clone 12C described in United States Publication Number US 2010/0183615 (e.g., see paragraphs 469-479 and FIG. 25 thereof), which also make up the CD3 binding domain of the bispecific antibody pasotuxizumab. […] In each column, tip-immobilized antibodies are listed first and solution antibodies second.

[15] = target: T13, ADI-26927 IgG; test: BLI; tip anti-CD3 IgG, solution ADI-34134 IgG
T13 construct: anti-CD3 IgG
Procedure: as §4, §6

[16] = target: T14, ADI-26928 IgG; test: BLI; tip anti-CD3 IgG, solution ADI-34134 IgG
T14 construct: anti-CD3 IgG
Procedure: as §4, §6

[17] = target: T15, ADI-26941 IgG; test: BLI; tip anti-CD3 IgG, solution ADI-34134 IgG
T15 construct: anti-CD3 IgG
Procedure: as §4, §6

[18] = target: T6, ADI-26906 IgG; test: BLI; tip anti-CD3 IgG, solution ADI-34134 IgG
Procedure: as §4, §6

[19] = target: T7, ADI-26913 IgG; test: BLI; tip anti-CD3 IgG, solution ADI-34134 IgG
Procedure: as §4, §6

[20] = target: T8, ADI-26920 IgG; test: BLI; tip anti-CD3 IgG, solution ADI-34134 IgG
Procedure: as §4, §6

[21] = target: T16, ADI-26921 IgG; test: BLI; tip anti-CD3 IgG, solution ADI-34134 IgG
T16 construct: anti-CD3 IgG
Procedure: as §4, §6

[22] = target: T9, ADI-26916 IgG; test: BLI; tip anti-CD3 IgG, solution ADI-34134 IgG
Procedure: as §4, §6

[23] = target: T17, ADI-26916 Fab; test: BLI; tip ADI-34134 IgG, solution anti-CD3 Fab
T17 construct: anti-CD3 Fab by papain digestion of the IgG
Procedure: as §4, §5

[24] = target: T18, ADI-26928 Fab; test: BLI; tip ADI-34134 IgG, solution anti-CD3 Fab
T18 construct: anti-CD3 Fab by papain digestion of the IgG
Procedure: as §4, §5

[25] = target: T9, ADI-26916 IgG; test: SPR Carterra avidity, yeast anti-ID, *koff limit
Outline: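 Anti-CD3 IgGs (100 nM) captured on goat anti-human Fc amine-coupled HC30M chip; anti-idiotype antibodies flowed as analytes, dissociation 300 s, HBSTE running buffer, 25° C. Double-referenced sensorgrams fitted to 1:1 model; glycine pH 1.7 regeneration.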

T9 sequence (VH, as listed by the source, chain 1 of 2): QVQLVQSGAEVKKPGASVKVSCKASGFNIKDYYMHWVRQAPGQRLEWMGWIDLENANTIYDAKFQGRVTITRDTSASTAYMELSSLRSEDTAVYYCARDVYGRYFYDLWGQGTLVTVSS
T9 sequence (VL, as listed by the source, chain 2 of 2): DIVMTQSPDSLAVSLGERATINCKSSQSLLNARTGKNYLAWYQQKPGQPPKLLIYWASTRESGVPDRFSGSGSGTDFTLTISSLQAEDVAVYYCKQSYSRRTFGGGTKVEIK
T7 sequence (VH, as listed by the source limits assumed, chain 1 of 2): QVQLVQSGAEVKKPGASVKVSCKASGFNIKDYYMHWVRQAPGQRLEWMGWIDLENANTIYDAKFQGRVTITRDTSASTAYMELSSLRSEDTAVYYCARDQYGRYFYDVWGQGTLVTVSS
T8 sequence (VH, as listed by the source limits assumed, chain 1 of 2): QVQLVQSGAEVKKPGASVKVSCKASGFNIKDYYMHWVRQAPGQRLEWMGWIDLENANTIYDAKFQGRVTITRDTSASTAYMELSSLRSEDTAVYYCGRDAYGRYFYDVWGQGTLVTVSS
T8 sequence (VL, as listed by the source limits assumed, chain 2 of 2): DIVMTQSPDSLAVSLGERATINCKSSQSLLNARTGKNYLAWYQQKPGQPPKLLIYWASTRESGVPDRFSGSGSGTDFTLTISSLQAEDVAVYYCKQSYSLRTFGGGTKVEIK
T4 sequence (VH, as listed by the source limits assumed, chain 1 of 2): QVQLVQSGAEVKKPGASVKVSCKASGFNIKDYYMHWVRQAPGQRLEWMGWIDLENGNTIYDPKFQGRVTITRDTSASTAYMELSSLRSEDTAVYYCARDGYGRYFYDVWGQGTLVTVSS
T4 sequence (VL, as listed by the source limits assumed, chain 2 of 2): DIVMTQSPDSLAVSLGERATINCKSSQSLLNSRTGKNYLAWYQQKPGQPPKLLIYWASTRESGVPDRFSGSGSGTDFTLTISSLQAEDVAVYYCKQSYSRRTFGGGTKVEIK
T6 sequence (VH, as listed by the source limits assumed, chain 1 of 2): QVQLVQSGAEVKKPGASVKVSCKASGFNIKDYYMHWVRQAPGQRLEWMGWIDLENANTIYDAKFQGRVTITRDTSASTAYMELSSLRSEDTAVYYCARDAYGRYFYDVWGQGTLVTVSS
T13 sequence (VH, as listed by the source limits assumed, chain 1 of 2): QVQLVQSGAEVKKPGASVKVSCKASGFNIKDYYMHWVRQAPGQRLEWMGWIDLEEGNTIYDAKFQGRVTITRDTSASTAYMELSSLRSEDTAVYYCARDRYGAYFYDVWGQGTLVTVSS
T5 sequence (VH, as listed by the source limits assumed, chain 1 of 2): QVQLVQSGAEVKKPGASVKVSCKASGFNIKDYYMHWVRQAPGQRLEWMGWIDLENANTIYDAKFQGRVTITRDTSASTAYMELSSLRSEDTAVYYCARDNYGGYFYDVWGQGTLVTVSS
T5 sequence (VL, as listed by the source limits assumed, chain 2 of 2): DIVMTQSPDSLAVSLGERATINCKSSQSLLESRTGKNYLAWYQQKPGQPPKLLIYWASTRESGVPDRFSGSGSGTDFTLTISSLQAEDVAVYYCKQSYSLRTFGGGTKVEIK
T18 sequence (VH, as listed by the source limits assumed, chain 1 of 2): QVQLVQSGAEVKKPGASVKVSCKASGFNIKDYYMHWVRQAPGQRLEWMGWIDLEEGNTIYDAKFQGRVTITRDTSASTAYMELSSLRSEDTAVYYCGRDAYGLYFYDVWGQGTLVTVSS
T1 sequence (VH, as listed by the source, chain 1 of 2): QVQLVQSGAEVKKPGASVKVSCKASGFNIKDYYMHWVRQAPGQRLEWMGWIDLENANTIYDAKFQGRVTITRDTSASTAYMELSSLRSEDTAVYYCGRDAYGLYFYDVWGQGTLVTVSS
T3 sequence (VH, as listed by the source, chain 1 of 2): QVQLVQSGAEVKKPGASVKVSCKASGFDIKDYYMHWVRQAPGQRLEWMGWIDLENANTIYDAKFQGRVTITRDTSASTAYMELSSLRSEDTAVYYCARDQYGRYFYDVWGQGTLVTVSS
T2 sequence (VH, as listed by the source, chain 1 of 2): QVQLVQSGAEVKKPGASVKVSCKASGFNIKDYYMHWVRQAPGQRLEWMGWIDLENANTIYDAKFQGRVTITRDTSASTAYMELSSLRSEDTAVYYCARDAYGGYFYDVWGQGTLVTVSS
T2 sequence (VL, as listed by the source, chain 2 of 2): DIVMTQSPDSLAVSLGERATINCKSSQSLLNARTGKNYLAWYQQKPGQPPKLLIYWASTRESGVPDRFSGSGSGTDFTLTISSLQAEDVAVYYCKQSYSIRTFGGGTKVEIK
T16 sequence (VH, as listed by the source limits assumed, chain 1 of 2): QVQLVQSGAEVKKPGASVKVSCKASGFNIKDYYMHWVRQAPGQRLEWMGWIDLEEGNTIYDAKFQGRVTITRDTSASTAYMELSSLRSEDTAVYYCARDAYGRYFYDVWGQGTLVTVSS
T10 sequence (VH, as listed by the source limits assumed, chain 1 of 2): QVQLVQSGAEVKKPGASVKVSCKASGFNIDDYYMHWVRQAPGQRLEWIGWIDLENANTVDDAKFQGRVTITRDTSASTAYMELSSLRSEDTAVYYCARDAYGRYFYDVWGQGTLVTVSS
T10 sequence (VL, as listed by the source limits assumed, chain 2 of 2): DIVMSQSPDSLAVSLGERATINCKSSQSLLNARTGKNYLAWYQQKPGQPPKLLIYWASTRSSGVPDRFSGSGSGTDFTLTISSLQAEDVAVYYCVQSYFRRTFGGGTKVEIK
T15 sequence (VH, as listed by the source limits assumed, chain 1 of 2): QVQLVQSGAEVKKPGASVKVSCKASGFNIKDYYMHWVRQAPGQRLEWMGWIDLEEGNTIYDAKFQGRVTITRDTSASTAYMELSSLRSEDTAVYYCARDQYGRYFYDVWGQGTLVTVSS
T12 sequence (VH, as listed by the source, chain 1 of 2): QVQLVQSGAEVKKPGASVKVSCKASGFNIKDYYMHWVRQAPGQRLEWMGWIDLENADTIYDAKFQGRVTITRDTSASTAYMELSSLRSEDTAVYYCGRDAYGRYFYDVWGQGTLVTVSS
T11 sequence (VH, as listed by the source limits assumed, chain 1 of 2): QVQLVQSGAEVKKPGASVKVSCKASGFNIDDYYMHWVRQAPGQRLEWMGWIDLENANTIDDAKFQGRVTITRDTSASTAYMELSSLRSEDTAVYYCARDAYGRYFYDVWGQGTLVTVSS

B1: ADI-34145 IgG (antibody, V domains shown)
VH: EVQLLESGGGLVQPGGSLRLSCAASGFTFSSYAMSWVRQAPGKGLEWVSTISGSGGSTYYADSVKGRFTISRDNSKNTLYLQMNSLRAEDTAVYYCARLGGRRGSGSSYYYYYGMDVWGQGTTVTVSS
VL: not shown
notes: anti-ID IgG
Kd [1]: 3.5 nM
Kd [2]: 4.2 nM
Kd [3]: 5.6 nM
Kd [4]: 2.72 nM
Kd [5]: 7.75 nM
Kd [6]: 8.39 nM
Kd [7]: 8.1 nM
Kd [8]: 14.3 nM
Kd [9]: 48 nM

B2: ADI-34134 IgG (antibody, V domains shown)
VH: QVQLVQSGAEVKKPGSSVKVSCKASGGTFSSYAISWVRQAPGQGLEWMGGIIPIFGTANYAQKFQGRVTITADESTSTAYMELSSLRSEDTAVYYCARGAPNYYGSGGYDDGWFDPWGQGTLVTVSS
VL: EIVLTQSPGTLSLSPGERATLSCRASQSVSSDYLAWYQQKPGQAPRLLIYGASSRATGIPDRFSGSGSGTDFTLTISRLEPEDFAVYYCQQFGRVPTFGGGTKVEIK
Kd [10]: 0.64 nM
Kd [11]: 0.68 nM
Kd [12]: 0.13 nM
Kd [13]: 0.21 nM
Kd [14]: 0.37 nM
Kd [15]: 0.45 nM
Kd [16]: 0.85 nM
Kd [17]: 1.13 nM
Kd [18]: 0.43 nM
Kd [19]: 0.77 nM
Kd [20]: 0.46 nM
Kd [21]: 0.57 nM
Kd [22]: 1.04 nM
Kd [23]: 56.5 nM
Kd [24]: 31 nM
Kd [25]: 6.3 nM
